Test results taken from article PMC9405023, “NRF2 Regulates Cystathionine Gamma-Lyase Expression and Activity in Primary Airway Epithelial Cells Infected with Respiratory Syncytial Virus”.

Target: T1, recombinant NRF2 (rNRF2) (UniProt Q16236 1-605)
T1 sequence: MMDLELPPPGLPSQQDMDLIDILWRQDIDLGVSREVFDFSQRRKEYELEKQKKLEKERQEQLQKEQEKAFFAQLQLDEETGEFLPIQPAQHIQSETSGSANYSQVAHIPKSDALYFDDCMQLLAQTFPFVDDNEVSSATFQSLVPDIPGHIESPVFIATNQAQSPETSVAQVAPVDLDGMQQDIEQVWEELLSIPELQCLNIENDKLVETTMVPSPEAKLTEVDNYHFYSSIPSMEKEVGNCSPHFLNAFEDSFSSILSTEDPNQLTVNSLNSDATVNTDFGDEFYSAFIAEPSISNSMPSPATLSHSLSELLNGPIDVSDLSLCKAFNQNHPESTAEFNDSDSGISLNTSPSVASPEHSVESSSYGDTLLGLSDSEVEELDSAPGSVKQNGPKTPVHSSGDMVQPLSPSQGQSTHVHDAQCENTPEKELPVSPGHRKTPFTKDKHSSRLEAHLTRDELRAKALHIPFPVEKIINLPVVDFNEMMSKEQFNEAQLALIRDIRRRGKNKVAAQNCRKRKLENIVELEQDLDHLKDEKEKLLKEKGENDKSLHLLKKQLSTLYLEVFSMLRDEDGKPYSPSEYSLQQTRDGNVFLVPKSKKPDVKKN
Experiment: EMSA; C1 and C2 complexes; 10 mM Tris-HCl pH 8.0, 50 mM KCl, 50 mM NaCl, 1 mM MgCl2, 1 mM EDTA, 5 mM DTT, 2.5% glycerol, 0.3 ug poly dI-dC, 15 fmol probe, 6-8 ug nuclear extract, 10 uL, 15 min, room temperature
Details: protein: recombinant; label: 32P (probe); blunt

B1: -156/-120 CSE wild type (WT) (dsDNA)
DNA 1: CGGTCGCGGTGACGTTTCAGGCAACGCCTCTGCTGT
DNA 2: ACAGCAGAGGCGTTGCCTGAAACGTCACCGCGACCG
B1: binds.
